Laboratory results published in paper PMC2668526 (Bioorganic & medicinal chemistry, 2008).
Several values for one entry are separate records, joined by “and”; a condition that tells them apart may be missing. Equal entries are not always repeated.

Key:
Assay in all cases: purified protein, by the assay type
Settings in all cases: other: O2 consumption, 5.0 mM ascorbate, pH 6.0, 37 °C
[1] = substrate: CC(=O)NCC(=O)NCC(=O)O
[2] = substrate: CC(C)(C)OC(=O)NCC(=O)NCC(=O)O
[3] = substrate: COc1ccc(C(=O)NCC(=O)O)cc1
[4] = substrate: C[C@@H](NC(=O)c1ccccc1)C(=O)O
[5] = substrate: Cc1ccccc1C(=O)NCC(=O)O
[6] = substrate: Nc1ccccc1C(=O)NCC(=O)O
[7] = substrate: O=C(O)CNC(=O)/C=C/c1ccccc1
[8] = substrate: O=C(O)CNC(=O)/C=C/c1ccco1
[9] = substrate: O=C(O)CNC(=O)C1CC1c1ccccc1
[10] = substrate: O=C(O)CNC(=O)CCCCCCCc1ccccc1
[11] = substrate: O=C(O)CNC(=O)CCCCc1ccccc1
[12] = substrate: O=C(O)CNC(=O)CCc1ccccc1
[13] = substrate: O=C(O)CNC(=O)CNC(=O)c1ccc([N+](=O)[O-])cc1
[14] = substrate: O=C(O)CNC(=O)Cc1ccccc1
[15] = substrate: O=C(O)CNC(=O)Nc1ccccc1
[16] = substrate: O=C(O)CNC(=O)SCc1ccccc1
[17] = substrate: O=C(O)CNC(=O)[C@@H]1CCC(=O)N1
[18] = substrate: O=C(O)CNC(=O)c1c(F)cccc1F
[19] = substrate: O=C(O)CNC(=O)c1ccc(C(F)(F)F)cc1
[20] = substrate: O=C(O)CNC(=O)c1ccc([N+](=O)[O-])cc1
[21] = substrate: O=C(O)CNC(=O)c1cccc(Cl)c1
[22] = substrate: O=C(O)CNC(=O)c1ccccc1O
[23] = substrate: O=C(O)CNC(=O)c1cccnc1
[24] = substrate: O=C(O)CNC(=O)c1ccco1
[25] = substrate: O=C(O)CNC(=O)c1cccs1
[26] = substrate: O=C(O)CNC(=S)CCc1ccccc1
[27] = substrate: O=C(O)CNC(=S)Cc1ccccc1

B1: rat PAM (Rattus norvegicus) (protein)
chain: FKETTRSFSNECLGTIGPVTPLDASDFALDIRMPGVTPKESDTYFCMSMRLPVDEEAFVIDFKPRASMDTVHHMLLFGCNMPSSTGSYWFCDEGTCTDKANILYAWARNAPPTRLPKGVGFRVGGETGSKYFVLQVHYGDISAFRDNHKDCSGVSVHLTRVPQPLIAGMYLMMSVDTVIPPGEKVVNADISCQYKMYPMHVFAYRVHTHHLGKVVSGYRVRNGQWTLIGRQNPQLPQAFYPVEHPVDVTFGDILAARCVFTGEGRTEATHIGGTSSDEMCNLYIMYYMEAKYALSFMTCTKNVAPDMFRTIPAEANIPIPVKPDMVMMHGHHKEAENKEKSALMQQPKQGEEEVLEQDFHVEEELDWPGVYLLPGQVSGVALDSKNNLVIFHRGDHVWDGNSFDSKFVYQQRGLGPIEEDTILVIDPNNAEILQSSGKNLFYLPHGLSIDTDGNYWVTDVALHQVFKLDPHSKEGPLLILGRSMQPGSDQNHFCQPTDVAVEPSTGAVFVSDGYCNSRIVQFSPSGKFVTQWGEESSGSSPRPGQFSVPHSLALVPHLDQLCVADRENGRIQCFKTDTKEFVREIKHASFGRNVFAISYIPGFLFAVNGKPYFGDQEPVQGFVMNFSSGEIIDVFKPVRKHFDMPHDIVASEDGTVYIGDAHTNTVWKFTLTEKMEHRSV
Protein B1 has a kcat [1] of 8.9 ± 0.2 s⁻¹, a kcat/Km [1] of 5900 ± 200 M⁻¹ s⁻¹ and a Km [2] of 0.30 ± 0.03 mM. The kcat [2] was 7.5 ± 0.2 s⁻¹, the kcat/Km [2] was 25000 ± 1000 M⁻¹ s⁻¹ and the Km [3] was 0.82 ± 0.04 mM. The kcat [3] was 5.3 ± 0.08 s⁻¹, the kcat/Km [3] was 6400 ± 200 M⁻¹ s⁻¹ and the Km [4] was 84 ± 23 mM. The kcat [4] was 0.27 ± 0.03 s⁻¹, the kcat/Km [4] was 3.2 ± 0.6 M⁻¹ s⁻¹ and the Km [5] was 4.3 ± 0.3 mM. For the same protein, the kcat [5] was 7.9 ± 0.3 s⁻¹, the kcat/Km [5] was 1800 ± 40 M⁻¹ s⁻¹ and the Km [6] was 1.4 ± 0.1 mM. The kcat [6] was 4.2 ± 0.1 s⁻¹, the kcat/Km [6] was 2900 ± 100 M⁻¹ s⁻¹ and the Km [7] was 0.23 ± 0.02 mM. The kcat [7] was 8.4 ± 0.3 s⁻¹, the kcat/Km [7] was 36000 ± 3000 M⁻¹ s⁻¹ and the Km [8] was 1.2 ± 0.1 mM. It also gave a kcat [8] of 3.4 ± 0.1 s⁻¹, a kcat/Km [8] of 2800 ± 100 M⁻¹ s⁻¹ and a Km [9] of 0.90 ± 0.07 mM. For the same protein, the kcat [9] was 10 ± 0.3 s⁻¹, the kcat/Km [9] was 11000 ± 700 M⁻¹ s⁻¹ and the Km [10] was 0.10 ± 0.009 0.064 ± 0.006 mM. For the same protein, the kcat [10] was 8 ± 0.3 s⁻¹, the kcat/Km [10] was 76000 ± 4000 M⁻¹ s⁻¹ and the kcat [11] was 12 ± 0.4 s⁻¹. For the same protein, the kcat/Km [11] was 76000 ± 4000 M⁻¹ s⁻¹, the Km [12] was 0.94 ± 0.1 0.55 ± 0.039 mM and the kcat [12] was 9.9 ± 0.4 s⁻¹. It also gave a kcat/Km [12] of 11000 ± 600 M⁻¹ s⁻¹, a Km [13] of 0.11 ± 0.007 mM and a kcat [13] of 8.7 ± 0.2 s⁻¹. For the same protein, the kcat/Km [13] was 76000 ± 4000 M⁻¹ s⁻¹, the Km [14] was 0.16 ± 0.005 mM and the kcat [14] was 7.4 s⁻¹. The kcat/Km [14] was 46000 M⁻¹ s⁻¹, the Km [15] was 0.36 ± 0.08 0.45 ± 0.05 mM and the kcat [15] was 9.7 ± 0.9 s⁻¹. The kcat/Km [15] was 27000 ± 4000 M⁻¹ s⁻¹, the Km [16] was 0.059 ± 0.0070 mM and the kcat [16] was 0.69 ± 0.022 s⁻¹. The kcat/Km [16] was 12000 ± 1400 M⁻¹ s⁻¹, the Km [17] was 0.3 mM and 0.31 ± 0.03 mM and the Km [18] was 19 ± 4 mM. For the same protein, the kcat [18] was 4.3 ± 0.6 s⁻¹, the kcat/Km [18] was 230 ± 20 M⁻¹ s⁻¹ and the Km [19] was 0.77 ± 0.1 mM. It also gave a kcat [19] of 2.8 ± 0.1 s⁻¹, a kcat/Km [19] of 3600 ± 500 M⁻¹ s⁻¹ and a Km [20] of 0.47 ± 0.01 mM. It also gave a kcat [20] of 4.2 ± 0.04 s⁻¹, a kcat/Km [20] of 8900 ± 200 M⁻¹ s⁻¹ and a Km [21] of 2.2 ± 0.2 mM. It also gave a kcat [21] of 7.8 ± 0.3 s⁻¹, a kcat/Km [21] of 3600 ± 200 M⁻¹ s⁻¹ and a kcat [22] of 4.9 ± 0.05 s⁻¹. For the same protein, the kcat/Km [22] was 7100 ± 100 M⁻¹ s⁻¹, the Km [23] was 1.9 ± 0.1 mM and the kcat [23] was 8 ± 0.2 s⁻¹. It also gave a kcat/Km [23] of 4200 ± 200 M⁻¹ s⁻¹, a Km [24] of 2.7 ± 0.1 mM and a kcat [24] of 7.5 ± 0.07 s⁻¹. For the same protein, the kcat/Km [24] was 2800 ± 100 M⁻¹ s⁻¹, the Km [25] was 1.6 ± 0.1 mM and the kcat/Km [25] was 6000 ± 300 M⁻¹ s⁻¹. For the same protein, the Km [26] was 0.038 ± 0.02 0.023 ± 0.002 mM, the kcat [26] was 1.6 ± 0.2 s⁻¹ and the kcat/Km [26] was 42000 ± 14000 M⁻¹ s⁻¹. The Km [27] was 0.024 ± 0.005 mM, the kcat [27] was 2.4 ± 0.2 s⁻¹ and the kcat/Km [27] was 100000 ± 20000 M⁻¹ s⁻¹.
